{"source": "FireProtDB (doi:10.1073/pnas.90.18.8367)", "parents": {"B1": {"name": "DNA-Binding protein, P69542 (parent)", "chain": "MIKVEIKPSQAQFTTRSGVSRQGKPYSLNEQLCYVDLGNEYPVLVKITLDEGQPAYAPGLYTVHLSSFKVGQFGSLMIDRLRLVPAK"}}, "data": [{"variants_of": "B1", "details": "Enterobacteria phage fd; pH 7; 25 °C; GdnHCl; CD; MOPS 50 mM; NaCl 100 mM; reversible: yes; structure 1VQB; whole UniProt chain shown", "units": {"ddG of mutation (higher = less stable)": "kJ/mol", "unfolding free energy": "kJ/mol"}, "values": [{"variant": "I47M", "ddG of mutation (higher = less stable)": 9.2}, {"variant": "I47F", "ddG of mutation (higher = less stable)": 8.37}, {"variant": "I47L", "ddG of mutation (higher = less stable)": 2.93}, {"variant": "I47V", "ddG of mutation (higher = less stable)": 10.9}, {"variant": "L28V", "ddG of mutation (higher = less stable)": -4.6}, {"variant": "C33V", "ddG of mutation (higher = less stable)": 0.837}, {"variant": "C33M", "ddG of mutation (higher = less stable)": 14.6}, {"variant": "E30F", "ddG of mutation (higher = less stable)": -8.37}, {"variant": "F73W", "ddG of mutation (higher = less stable)": -3.35}, {"variant": "V45C", "ddG of mutation (higher = less stable)": 0.418}, {"variant": "E30F A86T", "unfolding free energy": 4.9}, {"variant": "E30F A86V", "unfolding free energy": 8.58}, {"variant": "I6V M77I", "unfolding free energy": 1.42}, {"variant": "F13T", "ddG of mutation (higher = less stable)": 2.93}, {"variant": "L32Y", "ddG of mutation (higher = less stable)": -4.18}, {"variant": "V35L", "ddG of mutation (higher = less stable)": 11.3}, {"variant": "V35M", "ddG of mutation (higher = less stable)": 4.6}, {"variant": "V35C", "ddG of mutation (higher = less stable)": 5.86}, {"variant": "V35I", "ddG of mutation (higher = less stable)": 2.93}, {"variant": "V35A", "ddG of mutation (higher = less stable)": 9.2}, {"variant": "F68L", "ddG of mutation (higher = less stable)": 18}, {"variant": "H64C", "ddG of mutation (higher = less stable)": -2.09}, {"variant": "R82C", "ddG of mutation (higher = less stable)": 6.28}, {"variant": "A86T", "ddG of mutation (higher = less stable)": 2.93}, {"variant": "A86V", "ddG of mutation (higher = less stable)": -2.09}, {"variant": "I6V E30F", "unfolding free energy": 2.97}, {"variant": "F13T E30F", "unfolding free energy": 6.65}, {"variant": "L32Y R82C", "unfolding free energy": 0.628}]}]}
